Measured values: US20140213772A1 (AbbVie / Abbott, published 2014)

B1: AB274 (antibody, V domains shown)
VH: EVQLVQSGAEVKKPGSSVKVSCKASGGSFGGYGIGWVRQAPGQGLEWMGGITPFFGFADYAQKFQGRVTITADESTTTAYMELSGLTSDDTAVYYCARDPNEFWNGYYSTHDFDSWGQGTTVTVSS
VL: EIVLTQSPDFQSVTPKEKVTITCRASQDIGSELHWYQQKPDQPPKLLIKYASHSTSGVPSRFSGSGSGTDFTLTINGLEAEDAGTYYCHQTDSLPYTFGPGTKVDIKR
B2: AB441 (antibody, V domains shown)
VH: EVQLVQSGAEVKKPGASVKVSCKASGYTFANYGIIWVRQAPGQGLEWMGWINTYTGKPTYAQKFQGRVTMTTDTSTSTAYMELSSLRSEDTAVYYCARKLFTTMDVTDNAMDYWGQGTTVTVSS
VL: DIQMTQSPSSLSASVGDRVTITCRASQDISQYLNWYQQKPGKAPKLLIYYTSRLQSGVPSRFSGSGSGTDFTLTISSLQPEDFATYFCQQGNTWPPTFGQGTKLEIKR
B3: CODH1 (bispecific antibody)
chain 1: EVQLQESGPGLVKPSETLSLTCTVSGFSLSDYGVSWIRQPPGKGLEWLGLIWGGGDTYYNSPLKSRLTISKDNSKSQVSLKLSSVTAADTAVYYCAKQRTLWGYDLYGMDYWGQGTLVTVSSGEVQLVQSGAEVKKPGESVKISCKASGGSFRSYGISWVRQAPGQGLEWMGGITHFFGITDYAQKFQGRVTITADESTTTAYMELSGLTSDDTAVYYCAREPNDFWGGYYDTHDFDSWGQGTTVTVSSGG
chain 2: EIVLTQSPDFQSVTPKEKVTITCRASQNIGSELHWYQQKPDQSPKLLIKYASHSISGVPSRFSGSGSGTDFTLTINGLEAEDAATYYCHQSDTLPHTFGQGTKVDIKGGGGGGGDTQVTQSPSSLSASVGDRVTITCITSTDIDVDMNWYQQKPGKPPKLLISQGNTLRPGVPSRFSSSGSGTDFTFTISSLQPEDFATYYCLQSDNLPLTFGQGTKLEIKGGGGGR
B4: AB461 (antibody, V domains shown)
VH: EVQLVQSGAEVKKPGESVKISCKASGGSFRSYGISWVRQAPGQGLEWMGGITHFFGITDYAQKFQGRVTITADESTTTAYMELSGLTSDDTAVYYCAREPNDFWGGYYDTHDFDSWGQGTTVTVSS
VL: EIVLTQSPDFQSVTPKEKVTITCRASQNIGSELHWYQQKPDQSPKLLIKYASHSISGVPSRFSGSGSGTDFTLTINGLEAEDAATYYCHQSDTLPHTFGQGTKVDIK
notes: Benchmark anti-IL-17 mAb; also called B6-5G
B5: CODH2 (bispecific antibody)
chain 1: EVQLVQSGAEVKKPGESVKISCKASGGSFRSYGISWVRQAPGQGLEWMGGITHFFGITDYAQKFQGRVTITADESTTTAYMELSGLTSDDTAVYYCAREPNDFWGGYYDTHDFDSWGQGTTVTVSSGEVQLQESGPGLVKPSETLSLTCTVSGFSLSDYGVSWIRQPPGKGLEWLGLIWGGGDTYYNSPLKSRLTISKDNSKSQVSLKLSSVTAADTAVYYCAKQRTLWGYDLYGMDYWGQGTLVTVSSGG
chain 2: DTQVTQSPSSLSASVGDRVTITCITSTDIDVDMNWYQQKPGKPPKLLISQGNTLRPGVPSRFSSSGSGTDFTFTISSLQPEDFATYYCLQSDNLPLTFGQGTKLEIKGGGGGGGEIVLTQSPDFQSVTPKEKVTITCRASQNIGSELHWYQQKPDQSPKLLIKYASHSISGVPSRFSGSGSGTDFTLTINGLEAEDAATYYCHQSDTLPHTFGQGTKVDIKGGGGGR
B6: CODH3 (bispecific antibody)
chain 1: EVQLVESGGGVVQPGRSLRLSCSASGFIFSRYDMSWVRQAPGKGLEWVAYISHGGAGTYYPDSVKGRFTISRDNSKNTLFLQMDSLRPEDTGVYFCARGGVTKGYFDVWGQGTPVTVSSGEVQLVQSGAEVKKPGESVKISCKASGGSFRSYGISWVRQAPGQGLEWMGGITHFFGITDYAQKFQGRVTITADESTTTAYMELSGLTSDDTAVYYCAREPNDFWGGYYDTHDFDSWGQGTTVTVSSGG
chain 2: EIVLTQSPDFQSVTPKEKVTITCRASQNIGSELHWYQQKPDQSPKLLIKYASHSISGVPSRFSGSGSGTDFTLTINGLEAEDAATYYCHQSDTLPHTFGQGTKVDIKGGGGGGGDIQMTQSPSSLSASVGDRVTITCRASGNIHNYLTWYQQTPGKAPKLLIYNAKTLADGVPSRFSGSGSGTDYTFTISSLQPEDIATYYCQHFWSIPYTFGQGTKLQITGGGGGR
B7: CODH4 (bispecific antibody)
chain 1: EVQLVQSGAEVKKPGESVKISCKASGGSFRSYGISWVRQAPGQGLEWMGGITHFFGITDYAQKFQGRVTITADESTTTAYMELSGLTSDDTAVYYCAREPNDFWGGYYDTHDFDSWGQGTTVTVSSGEVQLVESGGGVVQPGRSLRLSCSASGFIFSRYDMSWVRQAPGKGLEWVAYISHGGAGTYYPDSVKGRFTISRDNSKNTLFLQMDSLRPEDTGVYFCARGGVTKGYFDVWGQGTPVTVSSGG
chain 2: DIQMTQSPSSLSASVGDRVTITCRASGNIHNYLTWYQQTPGKAPKLLIYNAKTLADGVPSRFSGSGSGTDYTFTISSLQPEDIATYYCQHFWSIPYTFGQGTKLQITGGGGGGGEIVLTQSPDFQSVTPKEKVTITCRASQNIGSELHWYQQKPDQSPKLLIKYASHSISGVPSRFSGSGSGTDFTLTINGLEAEDAATYYCHQSDTLPHTFGQGTKVDIKGGGGGR
B8: AB270 (antibody, V domains shown)
VH: EVQLQESGPGLVKPSETLSLTCTVSGFSLSDYGVSWIRQPPGKGLEWLGLIWGGGDTYYNSPLKSRLTISKDNSKSQVSLKLSSVTAADTAVYYCAKQRTLWGYDLYGMDYWGQGTLVTVSS
VL: DTQVTQSPSSLSASVGDRVTITCITSTDIDVDMNWYQQKPGKPPKLLISQGNTLRPGVPSRFSSSGSGTDFTFTISSLQPEDFATYYCLQSDNLPLTFGQGTKLEIK
notes: Benchmark anti-IL-1B mAb; also called 1B12.1; 1B12-1
B9: CODH15 (bispecific antibody)
chain 1: EIVLTQSPDFQSVTPKEKVTITCRASQNIGSELHWYQQKPDQSPKLLIKYASHSISGVPSRFSGSGSGTDFTLTINGLEAEDAATYYCHQSDTLPHTFGQGTKVDIKGGGGGGGDIQMTQSPSSLSASVGDRVTITCRASGNIHNYLTWYQQTPGKAPKLLIYNAKTLADGVPSRFSGSGSGTDYTFTISSLQPEDIATYYCQHFWSIPYTFGQGTKLQITGGGGG
chain 2: EVQLVESGGGVVQPGRSLRLSCSASGFIFSRYDMSWVRQAPGKGLEWVAYISHGGAGTYYPDSVKGRFTISRDNSKNTLFLQMDSLRPEDTGVYFCARGGVTKGYFDVWGQGTPVTVSSGEVQLVQSGAEVKKPGESVKISCKASGGSFRSYGISWVRQAPGQGLEWMGGITHFFGITDYAQKFQGRVTITADESTTTAYMELSGLTSDDTAVYYCAREPNDFWGGYYDTHDFDSWGQGTTVTVSSGGR
B10: CODH12 (bispecific antibody)
chain 1: EVQLVESGGGVVQPGRSLRLSCSASGFIFSRYDMSWVRQAPGKGLEWVAYISHGGAGTYYPDSVKGRFTISRDNSKNTLFLQMDSLRPEDTGVYFCARGGVTKGYFDVWGQGTPVTVSSGGGGSGGGEIVLTQSPDFQSVTPKEKVTITCRASQNIGSELHWYQQKPDQSPKLLIKYASHSISGVPSRFSGSGSGTDFTLTINGLEAEDAATYYCHQSDTLPHTFGQGTKVDIKGGSGG
chain 2: EVQLVQSGAEVKKPGESVKISCKASGGSFRSYGISWVRQAPGQGLEWMGGITHFFGITDYAQKFQGRVTITADESTTTAYMELSGLTSDDTAVYYCAREPNDFWGGYYDTHDFDSWGQGTTVTVSSGGGGSGGGDIQMTQSPSSLSASVGDRVTITCRASGNIHNYLTWYQQTPGKAPKLLIYNAKTLADGVPSRFSGSGSGTDYTFTISSLQPEDIATYYCQHFWSIPYTFGQGTKLQITGGGR

target: T1, IL-17 (UniProt Q16552 24-155); assay: ELISA
T1 sequence (Q16552 24-155 limits assumed): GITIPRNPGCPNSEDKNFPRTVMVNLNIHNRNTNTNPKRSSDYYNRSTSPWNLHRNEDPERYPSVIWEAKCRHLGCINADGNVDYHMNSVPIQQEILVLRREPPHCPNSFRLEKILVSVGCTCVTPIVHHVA

EC50 [nM]	Binder
0.203	B1

target: T2, TNF (UniProt P01375 77-233); assay: ELISA
T2 sequence (P01375 77-233 limits assumed): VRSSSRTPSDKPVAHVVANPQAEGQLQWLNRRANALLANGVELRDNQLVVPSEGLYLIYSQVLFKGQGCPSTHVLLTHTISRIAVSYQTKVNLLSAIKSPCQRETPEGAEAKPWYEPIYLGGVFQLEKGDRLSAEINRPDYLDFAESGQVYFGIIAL

EC50 [nM]	Binder
0.398	B2

target: T1, IL-17; assay: cell-based or functional assay

Neutralization IC50 (pM), IL-17 [pM]	Binder
10	B1

target: T2, TNF; assay: cell-based or functional assay

Neutralization IC50 (pM), TNF [pM]	Binder
6	B2

target: T1, IL-17; assay: SPR (Biacore)

Kd [nM]	Binder
< 0.0001	B3
0.0009	B4
0.0004	B5
< 0.0002	B6

target: T3, IL-1B (UniProt P01584 117-269); assay: SPR (Biacore)

Kd [nM]	Binder
0.19	B3
0.11	B7
0.17	B5
0.089	B8
390	B9
800	B10
0.13	B6

target: T1, IL-17; assay: cell-based or functional assay; remark: another data set of the same source

IL-17 neutralization IC50 (pM)	Binder
30	B3
2	B4
4	B7
29	B5
7.4	B9
220	B10
12	B6

target: T3, IL-1B; assay: cell-based or functional assay

IL-1B neutralization IC50 (pM)	Binder
1300	B3
113	B7
1600	B5
245	B8
1660	B9
2040	B10
1160	B6
